Experimental data from article PMC10397247.
Like-named read-outs stand apart in the source and are kept apart here. One block for each binder: values may come before it.

How the values were obtained:
[1] = biological target: T1, P2-AA-1HAA-E; experiment: two-hybrid library CCmax; conditions: mean of both orientations;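 note: natural log of median RNA to DNA barcode read ratio; higher means stronger binding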
T1 chain: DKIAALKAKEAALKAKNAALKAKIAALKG

[2] = biological target: T2, P2-AA; experiment: two-hybrid library CCmax; conditions: mean of both orientations;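 note: natural log of median RNA to DNA barcode read ratio; higher means stronger binding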
T2 chain: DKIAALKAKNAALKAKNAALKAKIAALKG

[3] = biological target: T3, P2-AA-1HAA-S; experiment: two-hybrid library CCmax; conditions: mean of both orientations;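 note: natural log of median RNA to DNA barcode read ratio; higher means stronger binding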
T3 chain: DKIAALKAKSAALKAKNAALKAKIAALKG

[4] = biological target: T4, P2-AA-1HAA-V; experiment: two-hybrid library CCmax; conditions: mean of both orientations;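 note: natural log of median RNA to DNA barcode read ratio; higher means stronger binding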
T4 chain: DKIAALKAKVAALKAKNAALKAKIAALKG

[5] = biological target: T5, P2-AA-1HAA-T; experiment: two-hybrid library CCmax; conditions: mean of both orientations;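 note: natural log of median RNA to DNA barcode read ratio; higher means stronger binding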
T5 chain: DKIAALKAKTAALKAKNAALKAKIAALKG

[6] = biological target: T6, P2-AA-1HAA-I; experiment: two-hybrid library CCmax; conditions: mean of both orientations;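 note: natural log of median RNA to DNA barcode read ratio; higher means stronger binding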
T6 chain: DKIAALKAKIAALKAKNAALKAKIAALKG

[7] = biological target: T7, P2-AA-1HAA-R; experiment: two-hybrid library CCmax; conditions: mean of both orientations
T7 chain: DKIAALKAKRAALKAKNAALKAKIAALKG

[8] = biological target: T8, P2-AA-1HAA-D; experiment: two-hybrid library CCmax
T8 chain: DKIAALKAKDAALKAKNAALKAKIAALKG

[9] = biological target: T9, O7-bP; experiment: two-hybrid library CCNG1
T9 chain: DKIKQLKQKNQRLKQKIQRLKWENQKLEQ

[10] = biological target: T10, O6-bP; experiment: two-hybrid library CCNG1
T10 chain: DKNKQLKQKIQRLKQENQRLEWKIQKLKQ

[11] = biological target: T11, O5-bP; experiment: two-hybrid library CCNG1
T11 chain: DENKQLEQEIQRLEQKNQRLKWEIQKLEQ

[12] = biological target: T12, O8-bP; experiment: two-hybrid library CCNG1
T12 chain: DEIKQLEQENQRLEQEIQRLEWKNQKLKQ

[13] = biological target: T13, O4-bP; experiment: two-hybrid library CCNG1
T13 chain: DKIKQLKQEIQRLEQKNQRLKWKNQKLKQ

[14] = biological target: T14, O9-bP; experiment: two-hybrid library CCNG1
T14 chain: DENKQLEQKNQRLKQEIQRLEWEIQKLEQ

[15] = biological target: T15, 4H3638-bA; experiment: two-hybrid library CCNG1
T15 chain: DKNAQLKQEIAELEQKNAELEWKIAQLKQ

[16] = biological target: T16, 4H3631-bA; experiment: two-hybrid library CCNG1
T16 chain: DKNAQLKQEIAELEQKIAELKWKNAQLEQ

[17] = biological target: T17, 4H850-bA; experiment: two-hybrid library CCNG1
T17 chain: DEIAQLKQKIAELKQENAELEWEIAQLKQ

[18] = biological target: T18, 4H570-bA; experiment: two-hybrid library CCNG1
T18 chain: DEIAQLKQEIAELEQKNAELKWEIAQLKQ

[19] = biological target: T19, 4H3817-bA; experiment: two-hybrid library CCNG1
T19 chain: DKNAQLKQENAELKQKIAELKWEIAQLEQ

[20] = biological target: T20, 4H3414-bA; experiment: two-hybrid library CCNG1
T20 chain: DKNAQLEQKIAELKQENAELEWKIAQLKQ

[21] = biological target: T21, 4H584-bA; experiment: two-hybrid library CCNG1
T21 chain: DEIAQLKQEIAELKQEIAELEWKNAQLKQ

[22] = biological target: T22, 4H619-bA; experiment: two-hybrid library CCNG1
T22 chain: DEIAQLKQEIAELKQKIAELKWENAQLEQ

[23] = biological target: T23, 4H906-bA; experiment: two-hybrid library CCNG1
T23 chain: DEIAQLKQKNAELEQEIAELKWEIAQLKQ

[24] = biological target: T24, 4H3974-bA; experiment: two-hybrid library CCNG1
T24 chain: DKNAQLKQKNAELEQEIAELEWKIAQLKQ

[25] = biological target: T25, 4H2931-bH; experiment: two-hybrid library CCNG1
T25 chain: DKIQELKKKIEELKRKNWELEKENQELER

[26] = biological target: T26, 4H949-bH; experiment: two-hybrid library CCNG1
T26 chain: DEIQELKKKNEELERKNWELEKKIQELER

[27] = biological target: T27, 4H349-bH; experiment: two-hybrid library CCNG1
T27 chain: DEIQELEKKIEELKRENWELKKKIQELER

[28] = biological target: T28, 4H3381-bH; experiment: two-hybrid library CCNG1
T28 chain: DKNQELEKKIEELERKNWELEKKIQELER

[29] = biological target: T29, 4H3010-bA; experiment: two-hybrid library CCNG1
T29 chain: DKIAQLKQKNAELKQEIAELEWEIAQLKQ

[30] = biological target: T30, 4H932-bH; experiment: two-hybrid library CCNG1
T30 chain: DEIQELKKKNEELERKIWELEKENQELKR

[31] = biological target: T31, 4H3297-bH; experiment: two-hybrid library CCNG1
T31 chain: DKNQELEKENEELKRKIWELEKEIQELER

[32] = biological target: T32, 4H264-bH; experiment: two-hybrid library CCNG1
T32 chain: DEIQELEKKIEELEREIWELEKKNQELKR

[33] = biological target: T33, 4H3364-bH; experiment: two-hybrid library CCNG1
T33 chain: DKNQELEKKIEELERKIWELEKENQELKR

[34] = biological target: T34, 4H796-bH; experiment: two-hybrid library CCNG1
T34 chain: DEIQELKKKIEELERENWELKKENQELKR

[35] = biological target: T35, 4H2859-bH; experiment: two-hybrid library CCNG1
T35 chain: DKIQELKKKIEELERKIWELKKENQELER

[36] = biological target: T36, 4H3041-bH; experiment: two-hybrid library CCNG1
T36 chain: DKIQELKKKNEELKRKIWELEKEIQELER

[37] = biological target: T37, 4H56-bH; experiment: two-hybrid library CCNG1
T37 chain: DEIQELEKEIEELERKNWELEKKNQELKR

[38] = biological target: T38, 4H2760-bH; experiment: two-hybrid library CCNG1
T38 chain: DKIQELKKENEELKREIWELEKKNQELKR

[39] = biological target: T39, 4H730-bH; experiment: two-hybrid library CCNG1
T39 chain: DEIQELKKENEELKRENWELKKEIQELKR

[40] = biological target: T40, O8-bA; experiment: two-hybrid library CCNG1
T40 chain: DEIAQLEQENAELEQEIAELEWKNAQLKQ

[41] = biological target: T41, P7A-bA; experiment: two-hybrid library CCNG1
T41 chain: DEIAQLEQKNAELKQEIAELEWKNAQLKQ

[42] = biological target: T42, P8A-bA; experiment: two-hybrid library CCNG1
T42 chain: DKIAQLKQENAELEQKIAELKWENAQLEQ

[43] = biological target: T43, P9A-bA; experiment: two-hybrid library CCNG1
T43 chain: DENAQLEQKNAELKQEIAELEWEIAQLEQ

[44] = biological target: T44, 4H4073-bA; experiment: two-hybrid library CCNG1
T44 chain: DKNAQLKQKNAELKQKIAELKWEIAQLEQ

[45] = biological target: T45, O16-bN; experiment: two-hybrid library CCNG1
T45 chain: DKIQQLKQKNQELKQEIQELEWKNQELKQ

[46] = biological target: T46, 4H40-bH; experiment: two-hybrid library CCNG1
T46 chain: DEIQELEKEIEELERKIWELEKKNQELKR

- interaction score [1]: 1.86
- interaction score [2]: 2.29
- interaction score [3]: 2
- interaction score [4]: 2.11
- interaction score [5]: 1.64
- interaction score [6]: 2.26
- interaction score [7]: 1.48
- interaction score ([8]; mean of both orientations): 1.87
Binder: DEIAALEAEAAALEAENAALEAEIAALEG [P1-AA-1HAA-A]

- interaction score [9]: -0.866
- interaction score [10]: -0.676
- interaction score [11]: -0.998
- interaction score [12]: -2.5
- interaction score [13]: -0.959
- interaction score [14]: -0.425
Binder: DKIKQLKQEIQRLEQKNQRLKWKNQKLKQ [O4-bP]

- interaction score [15]: 1.02
- interaction score [16]: 0.00557
- interaction score [17]: -0.866
- interaction score [18]: 0.386
- interaction score [19]: 0.381
- interaction score [20]: 0.915
- interaction score [21]: -0.456
- interaction score [22]: -1.25
- interaction score [23]: -0.43
- interaction score [24]: -0.77
Binder: DKNAQLEQKIAELKQENAELEWKIAQLKQ [4H3414-bA]

- interaction score [1]: 1.97
- interaction score [2]: 2.06
- interaction score [3]: 1.18
- interaction score [4]: 2
- interaction score [5]: 1.87
- interaction score [6]: 2.17
- interaction score [7]: 2.17
- interaction score ([8]; mean of both orientations): 1.28
Binder: DEIAALEAESAALEAENAALEAEIAALEG [P1-AA-1HAA-S]

- interaction score [25]: 0.678
- interaction score [26]: -0.764
- interaction score [27]: 0.113
- interaction score [28]: 1.06
- interaction score [29]: 1.67
- interaction score [30]: -0.203
- interaction score [31]: 1.11
- interaction score [32]: 0.678
- interaction score [33]: 0.996
- interaction score [34]: -0.303
- interaction score [35]: 1.8
- interaction score [36]: 1.23
- interaction score [37]: -0.538
- interaction score [38]: 0.562
- interaction score [39]: 0.131
- interaction score [40]: 0.091
Binder: DEIQELEKKIEELEREIWELEKKNQELKR [4H264-bH]

- interaction score [1]: 0.472
- interaction score [3]: 1.97
- interaction score [4]: 2.1
- interaction score [5]: 2.06
- interaction score [6]: 1.82
- interaction score [7]: 1.56
- interaction score ([8]; mean of both orientations): 0.24
Binder: DEIAALEAEKAALEAENAALEAEIAALEG [P1-AA-1HAA-K]

- interaction score [41]: 0.285
- interaction score [42]: 0.137
- interaction score [43]: -1.98
Binder: DKNAQLKQEIAELEQENAELEWKIAQLKQ [P6A-bA]

- interaction score [41]: -0.889
- interaction score [42]: 1.79
- interaction score [43]: -0.632
Binder: DEIAQLEQKNAELKQEIAELEWKNAQLKQ [P7A-bA]

- interaction score [1]: 0.913
- interaction score [3]: 1.91
- interaction score [4]: 1.33
- interaction score [5]: 2.13
- interaction score [6]: 1.98
- interaction score [7]: 1.34
- interaction score [8]: 1.5
Binder: DEIAALEAEHAALEAENAALEAEIAALEG [P1-AA-1HAA-H]

- interaction score [25]: -0.365
- interaction score [44]: -0.277
- interaction score [26]: -0.189
- interaction score [27]: 0.171
- interaction score [28]: 0.571
- interaction score [45]: 0.693
- interaction score [30]: -1.86
- interaction score [31]: 1.12
- interaction score [33]: 0.427
- interaction score [34]: 0.41
- interaction score [35]: 0.64
- interaction score [36]: 0.73
- interaction score [46]: -1.45
- interaction score [37]: -1.85
- interaction score [38]: 1.46
- interaction score [39]: -0.92
Binder: DKIQELKKENEELKREIWELEKKNQELKR [4H2760-bH]
